Laboratory results taken from paper PMC5595413.
Where “and” joins values, the source holds several entries; their conditions need not be identical. Equal values may be shown once.

What was measured:
[1] = target: C107S SqrR (R. capsulatus); assay: SEC + cross-linking
[2] = target: C41S SqrR (R. capsulatus); assay: SEC + cross-linking

Row | Substance | stoichiometry N [1] | stoichiometry N [2]
1 | C107S SqrR (natural protein) | 2 and 4 | –
2 | C41S SqrR (natural protein) | – | 2
